US20200199576

How the values were obtained:
β-catenin, P35222 = biological target: T1, β-catenin, P35222
T1 chain: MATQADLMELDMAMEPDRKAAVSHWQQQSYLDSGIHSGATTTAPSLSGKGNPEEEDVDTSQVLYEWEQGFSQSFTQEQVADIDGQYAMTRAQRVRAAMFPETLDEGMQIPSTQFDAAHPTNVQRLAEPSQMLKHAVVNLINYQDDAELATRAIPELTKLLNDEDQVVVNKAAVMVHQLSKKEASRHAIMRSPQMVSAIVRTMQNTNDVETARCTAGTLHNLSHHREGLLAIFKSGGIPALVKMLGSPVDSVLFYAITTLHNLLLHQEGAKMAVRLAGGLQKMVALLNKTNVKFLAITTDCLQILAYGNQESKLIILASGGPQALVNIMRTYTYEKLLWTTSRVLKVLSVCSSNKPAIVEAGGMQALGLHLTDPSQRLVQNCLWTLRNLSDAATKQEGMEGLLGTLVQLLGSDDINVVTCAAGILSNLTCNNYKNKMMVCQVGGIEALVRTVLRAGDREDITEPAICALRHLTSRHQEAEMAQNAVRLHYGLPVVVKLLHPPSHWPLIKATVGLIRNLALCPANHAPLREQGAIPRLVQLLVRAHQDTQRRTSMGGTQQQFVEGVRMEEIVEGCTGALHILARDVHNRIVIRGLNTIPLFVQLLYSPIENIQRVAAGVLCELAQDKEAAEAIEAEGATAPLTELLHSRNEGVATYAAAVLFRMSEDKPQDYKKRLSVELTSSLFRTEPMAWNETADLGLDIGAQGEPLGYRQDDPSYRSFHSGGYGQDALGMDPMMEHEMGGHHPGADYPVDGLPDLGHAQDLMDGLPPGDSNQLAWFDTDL

[1] = biological target: T2, UV excision repair protein HHR23A (RAD23A), P54725
T2 chain: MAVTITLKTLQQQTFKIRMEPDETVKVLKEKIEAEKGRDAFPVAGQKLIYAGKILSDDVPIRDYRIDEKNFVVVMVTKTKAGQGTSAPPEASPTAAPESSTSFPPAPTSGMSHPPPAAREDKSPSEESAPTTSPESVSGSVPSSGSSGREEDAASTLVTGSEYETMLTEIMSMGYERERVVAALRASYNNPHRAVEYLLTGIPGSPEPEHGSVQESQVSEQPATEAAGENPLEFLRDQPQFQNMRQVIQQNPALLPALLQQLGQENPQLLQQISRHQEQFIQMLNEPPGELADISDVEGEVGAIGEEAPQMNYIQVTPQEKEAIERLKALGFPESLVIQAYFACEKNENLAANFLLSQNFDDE

CDK4, P11802 = biological target: T3, CDK4, P11802
T3 chain: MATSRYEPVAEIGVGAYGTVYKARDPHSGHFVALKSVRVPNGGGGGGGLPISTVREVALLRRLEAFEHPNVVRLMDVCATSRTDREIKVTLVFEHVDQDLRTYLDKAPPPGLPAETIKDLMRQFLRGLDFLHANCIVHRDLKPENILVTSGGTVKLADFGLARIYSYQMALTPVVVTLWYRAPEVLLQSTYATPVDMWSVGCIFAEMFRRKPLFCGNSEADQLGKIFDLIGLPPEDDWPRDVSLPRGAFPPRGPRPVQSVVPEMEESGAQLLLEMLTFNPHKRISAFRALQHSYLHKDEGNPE

[2] = biological target: protein Arg methyltransferase 5 (PRMT5), O14744
[3] = biological target: T4, FAS-associated factor UbxD8, Q96CS3
T4 chain: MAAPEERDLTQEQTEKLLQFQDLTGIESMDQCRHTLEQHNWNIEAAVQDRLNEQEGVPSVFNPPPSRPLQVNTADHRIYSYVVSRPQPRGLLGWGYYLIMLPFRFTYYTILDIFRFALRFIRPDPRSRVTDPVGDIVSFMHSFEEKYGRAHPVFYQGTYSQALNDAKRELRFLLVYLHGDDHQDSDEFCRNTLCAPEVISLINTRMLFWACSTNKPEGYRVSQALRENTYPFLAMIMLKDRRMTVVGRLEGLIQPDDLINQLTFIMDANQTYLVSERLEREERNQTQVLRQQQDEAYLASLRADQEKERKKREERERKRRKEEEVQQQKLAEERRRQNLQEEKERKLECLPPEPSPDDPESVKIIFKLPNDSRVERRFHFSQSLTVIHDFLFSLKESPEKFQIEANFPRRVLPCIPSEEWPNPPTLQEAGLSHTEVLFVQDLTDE

Sequence of protein Arg methyltransferase 5 (PRMT5), O14744 (O14744 whole entry): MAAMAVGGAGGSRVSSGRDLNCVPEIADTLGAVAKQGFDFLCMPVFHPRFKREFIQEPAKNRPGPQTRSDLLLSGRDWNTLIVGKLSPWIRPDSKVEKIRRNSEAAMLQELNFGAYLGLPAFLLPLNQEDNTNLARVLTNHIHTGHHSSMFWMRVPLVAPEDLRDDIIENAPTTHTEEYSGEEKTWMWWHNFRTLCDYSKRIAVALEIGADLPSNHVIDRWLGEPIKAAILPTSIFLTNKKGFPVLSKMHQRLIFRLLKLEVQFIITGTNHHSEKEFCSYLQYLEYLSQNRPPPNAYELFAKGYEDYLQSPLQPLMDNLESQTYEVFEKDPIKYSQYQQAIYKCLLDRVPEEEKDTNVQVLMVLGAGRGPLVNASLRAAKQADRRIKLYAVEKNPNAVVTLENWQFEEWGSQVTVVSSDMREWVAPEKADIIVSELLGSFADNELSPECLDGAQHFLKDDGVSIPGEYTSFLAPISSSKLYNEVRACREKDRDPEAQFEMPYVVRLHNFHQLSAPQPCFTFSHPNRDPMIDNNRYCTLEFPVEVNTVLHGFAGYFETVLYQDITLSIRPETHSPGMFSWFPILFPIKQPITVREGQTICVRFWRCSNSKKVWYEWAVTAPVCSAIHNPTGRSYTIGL

B1: wt E6AP (full-length) (protein)
chain: MKRAAAKHLIERYYHQLTEGCGNEACTNEFCASCPTFLRMDNNAAAIKALELYKINAKLCDPHPSKKGASSAYLENSKGAPNNSCSEIKMNKKGARIDFKDVTYLTEEKVYEILELCREREDYSPLIRVIGRVFSSAEALVQSFRKVKQHTKEELKSLQAKDEDKDEDEKEKAACSAAAMEEDSEASSSRIGDSSQGDNNLQKLGPDDVSVDIDAIRRVYTRLLSNEKIETAFLNALVYLSPNVECDLTYHNVYSRDPNYLNLFIIVMENRNLHSPEYLEMALPLFCKAMSKLPLAAQGKLIRLWSKYNADQIRRMMETFQQLITYKVISNEFNSRNLVNDDDAIVAASKCLKMVYYANVVGGEVDTNHNEEDDEEPIPESSELTLQELLGEERRNKKGPRVDPLETELGVKTLDCRKPLIPFEEFINEPLNEVLEMDKDYTFFKVETENKFSFMTCPFILNAVTKNLGLYYDNRIRMYSERRITVLYSLVQGQQLNPYLRLKVRRDHIIDDALVRLEMIAMENPADLKKQLYVEFEGEQGVDEGGVSKEFFQLVVEEIFNPDIGMFTYDESTKLFWFNPSSFETEGQFTLIGIVLGLAIYNNCILDVHFPMVVYRKLMGKKGTFRDLGDSHPVLYQSLKDLLEYEGNVEDDMMITFQISQTDLFGNPMMYDLKENGDKIPITNENRKEFVNLYSDYILNKSVEKQFKAFRRGFHMVTNESPLKYLFRPEEIELLICGSRNLDFQALEETTEYDGGYTRDSVLIREFWEIVHSFTDEQKRLFLQFTTGTDRAPVGGLGKLKMIIAKNGPDTERLPTSHTCFNVLLLPEYSSKEKLKERLLKAITYAKGFGML
β-catenin, P35222
  in vitro substrate ubiquitination with wt UB through Uba1-UbcH7-E6AP, Western blot: CDK1, CDK4 and β-catenin were strongly ubiquitinated by E6AP with the formation of high molecular weight bands
[1]
  in vitro substrate ubiquitination with wt UB through Uba1-UbcH7-E6AP, Western blot: E6AP-catalyzed ubiquitination of HHR23A, a previously identified E6AP substrate, was confirmed
CDK1, P06493
Sequence of CDK1, P06493 (P06493 whole entry, looked up): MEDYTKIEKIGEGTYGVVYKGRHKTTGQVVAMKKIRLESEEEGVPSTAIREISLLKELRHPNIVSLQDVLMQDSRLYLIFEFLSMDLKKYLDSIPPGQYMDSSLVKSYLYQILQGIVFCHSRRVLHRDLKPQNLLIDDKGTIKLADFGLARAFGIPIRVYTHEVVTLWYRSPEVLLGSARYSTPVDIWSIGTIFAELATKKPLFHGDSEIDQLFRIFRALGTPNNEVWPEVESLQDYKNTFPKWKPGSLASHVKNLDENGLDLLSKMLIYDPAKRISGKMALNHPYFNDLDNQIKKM
  in vitro substrate ubiquitination with wt UB through Uba1-UbcH7-E6AP, Western blot: CDK1, CDK4 and β-catenin were strongly ubiquitinated by E6AP with the formation of high molecular weight bands
CDK4, P11802
  in vitro substrate ubiquitination with wt UB through Uba1-UbcH7-E6AP, Western blot: CDK1, CDK4 and β-catenin were strongly ubiquitinated by E6AP with the formation of high molecular weight bands
p53, P04637
Sequence of p53, P04637 (P04637 whole entry, looked up): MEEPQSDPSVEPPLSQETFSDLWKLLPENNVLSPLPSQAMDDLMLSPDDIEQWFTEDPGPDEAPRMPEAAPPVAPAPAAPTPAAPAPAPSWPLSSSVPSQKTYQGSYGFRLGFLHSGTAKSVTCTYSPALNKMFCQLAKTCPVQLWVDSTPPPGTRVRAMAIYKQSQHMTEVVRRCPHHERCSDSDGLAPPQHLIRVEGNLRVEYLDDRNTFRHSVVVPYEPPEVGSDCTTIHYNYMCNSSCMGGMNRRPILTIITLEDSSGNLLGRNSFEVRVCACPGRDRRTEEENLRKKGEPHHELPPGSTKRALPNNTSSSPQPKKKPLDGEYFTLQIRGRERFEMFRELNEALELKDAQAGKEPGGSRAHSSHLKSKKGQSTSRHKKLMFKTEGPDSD
  p53 ubiquitination in the presence of E6, Western blot: p53 can be efficiently ubiquitinated by wt UB through the wt Uba1-UbcH7-E6AP cascade in the presence of E6
MAPK1, P28482
Sequence of MAPK1, P28482 (P28482 whole entry): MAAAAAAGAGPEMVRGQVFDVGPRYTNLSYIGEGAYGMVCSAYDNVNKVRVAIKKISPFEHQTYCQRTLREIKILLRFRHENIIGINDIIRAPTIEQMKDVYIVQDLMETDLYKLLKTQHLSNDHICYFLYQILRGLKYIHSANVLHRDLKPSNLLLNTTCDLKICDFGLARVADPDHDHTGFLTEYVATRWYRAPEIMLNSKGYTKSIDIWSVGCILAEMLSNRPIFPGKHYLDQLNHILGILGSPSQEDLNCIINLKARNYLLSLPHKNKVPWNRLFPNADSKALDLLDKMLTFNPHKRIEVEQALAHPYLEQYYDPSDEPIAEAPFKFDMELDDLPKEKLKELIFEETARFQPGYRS
  in vitro substrate ubiquitination with wt UB through Uba1-UbcH7-E6AP, Western blot: MAPK1, PRMTS, and UbxD8 mainly generated species with one or two conjugated UBs
[2]
  in vitro substrate ubiquitination with wt UB through Uba1-UbcH7-E6AP, Western blot: MAPK1, PRMTS, and UbxD8 mainly generated species with one or two conjugated UBs
Wt UbcH7 (human E2)
  full-length E6AP auto-ubiquitination with wt UB, Western blot: wt E6AP can be auto-ubiquitinated by the wt Uba1-UbcH7 pair
[3]
  in vitro substrate ubiquitination with wt UB through Uba1-UbcH7-E6AP, Western blot: MAPK1, PRMTS, and UbxD8 mainly generated species with one or two conjugated UBs
